The target in data set [1] is T1, native full length human ADAMTS-13 (wild type).
T1 chain: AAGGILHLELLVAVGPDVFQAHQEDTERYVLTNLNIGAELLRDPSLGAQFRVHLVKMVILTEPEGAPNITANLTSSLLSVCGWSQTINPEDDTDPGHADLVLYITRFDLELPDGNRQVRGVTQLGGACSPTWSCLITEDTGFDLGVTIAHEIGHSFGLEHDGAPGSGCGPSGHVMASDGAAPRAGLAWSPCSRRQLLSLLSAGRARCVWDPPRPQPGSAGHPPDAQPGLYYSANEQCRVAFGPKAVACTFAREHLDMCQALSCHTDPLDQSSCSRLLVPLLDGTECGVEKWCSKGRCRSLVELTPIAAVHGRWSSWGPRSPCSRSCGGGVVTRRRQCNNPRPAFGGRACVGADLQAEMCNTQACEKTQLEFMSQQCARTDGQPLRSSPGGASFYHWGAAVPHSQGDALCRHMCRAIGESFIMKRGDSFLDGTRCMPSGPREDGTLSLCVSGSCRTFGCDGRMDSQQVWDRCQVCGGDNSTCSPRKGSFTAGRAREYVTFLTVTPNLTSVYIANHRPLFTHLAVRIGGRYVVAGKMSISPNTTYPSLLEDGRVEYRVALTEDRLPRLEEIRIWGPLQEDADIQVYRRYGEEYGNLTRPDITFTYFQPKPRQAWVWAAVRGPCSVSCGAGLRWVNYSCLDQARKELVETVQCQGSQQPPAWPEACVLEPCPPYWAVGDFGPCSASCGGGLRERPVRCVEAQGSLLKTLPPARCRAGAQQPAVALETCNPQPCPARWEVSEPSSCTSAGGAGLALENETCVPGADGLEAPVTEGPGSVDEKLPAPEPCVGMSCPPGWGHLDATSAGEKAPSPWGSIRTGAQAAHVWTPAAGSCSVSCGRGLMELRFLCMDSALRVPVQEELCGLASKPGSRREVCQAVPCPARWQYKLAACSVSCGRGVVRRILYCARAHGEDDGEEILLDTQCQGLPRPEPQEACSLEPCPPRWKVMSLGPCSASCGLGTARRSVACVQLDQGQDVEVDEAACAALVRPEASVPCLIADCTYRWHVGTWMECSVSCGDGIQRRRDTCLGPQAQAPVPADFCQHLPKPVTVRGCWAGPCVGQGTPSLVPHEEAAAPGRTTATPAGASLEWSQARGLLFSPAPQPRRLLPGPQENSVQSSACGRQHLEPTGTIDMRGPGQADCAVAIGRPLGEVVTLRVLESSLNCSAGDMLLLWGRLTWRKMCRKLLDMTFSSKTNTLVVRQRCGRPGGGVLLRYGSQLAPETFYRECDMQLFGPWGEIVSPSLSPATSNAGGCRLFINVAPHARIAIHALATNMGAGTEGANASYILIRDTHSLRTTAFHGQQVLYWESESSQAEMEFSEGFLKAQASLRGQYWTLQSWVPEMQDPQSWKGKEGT

Data set [2] addresses T2, truncated recombinant human ADAMTS-13 variant (MDTCS), trADAMTS-13 WT.
T2 chain: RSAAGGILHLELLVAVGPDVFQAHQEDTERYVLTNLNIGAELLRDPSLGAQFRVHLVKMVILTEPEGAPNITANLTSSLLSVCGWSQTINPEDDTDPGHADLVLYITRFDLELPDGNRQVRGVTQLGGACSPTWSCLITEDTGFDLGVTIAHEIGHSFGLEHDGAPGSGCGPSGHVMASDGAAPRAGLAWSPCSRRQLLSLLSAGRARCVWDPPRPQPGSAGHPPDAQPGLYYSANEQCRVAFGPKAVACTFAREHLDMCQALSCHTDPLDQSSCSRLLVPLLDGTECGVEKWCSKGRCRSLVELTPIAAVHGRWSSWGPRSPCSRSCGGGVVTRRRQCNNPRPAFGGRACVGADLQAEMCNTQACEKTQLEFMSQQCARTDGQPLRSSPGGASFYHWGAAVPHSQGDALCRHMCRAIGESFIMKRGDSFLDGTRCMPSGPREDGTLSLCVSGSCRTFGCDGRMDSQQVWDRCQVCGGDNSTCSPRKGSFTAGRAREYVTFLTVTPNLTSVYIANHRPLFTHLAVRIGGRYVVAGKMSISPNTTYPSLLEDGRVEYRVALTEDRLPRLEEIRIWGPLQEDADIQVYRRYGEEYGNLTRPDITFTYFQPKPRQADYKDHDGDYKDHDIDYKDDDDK

For data set [3], the target named is T3, trADAMTS-13^V313D (truncated ADAMTS-13 mutant, Val313 to Asp).
T3 chain: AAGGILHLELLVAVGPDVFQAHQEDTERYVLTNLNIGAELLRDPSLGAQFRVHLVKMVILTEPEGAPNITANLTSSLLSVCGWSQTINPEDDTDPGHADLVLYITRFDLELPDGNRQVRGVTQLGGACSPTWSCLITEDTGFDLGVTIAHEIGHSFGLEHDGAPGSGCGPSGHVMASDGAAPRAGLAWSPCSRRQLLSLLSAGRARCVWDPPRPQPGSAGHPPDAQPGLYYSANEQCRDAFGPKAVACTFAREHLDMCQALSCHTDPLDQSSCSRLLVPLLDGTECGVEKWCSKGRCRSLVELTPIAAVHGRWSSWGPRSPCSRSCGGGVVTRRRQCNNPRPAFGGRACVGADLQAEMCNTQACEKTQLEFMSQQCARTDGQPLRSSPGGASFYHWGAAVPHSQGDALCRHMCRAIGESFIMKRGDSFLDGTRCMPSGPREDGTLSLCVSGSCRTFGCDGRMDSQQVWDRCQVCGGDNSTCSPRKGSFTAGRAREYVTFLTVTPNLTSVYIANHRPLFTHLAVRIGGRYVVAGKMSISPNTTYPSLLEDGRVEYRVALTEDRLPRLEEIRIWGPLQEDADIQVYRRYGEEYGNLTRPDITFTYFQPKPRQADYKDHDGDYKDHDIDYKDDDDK

B1: tissue plasminogen activator (tPA) (protein)
chain: SYQVICRDEKTQMIYQQHQSWLRPVLRSNRVEYCWCNSGRAQCHSVPVKSCSEPRCFNGGTCQQALYFSDFVCQCPEGFAGKCCEIGNSDCYFGNGSAYRGTHSLTESGASCLPWNSMILIGKVYTAQNPSAQALGLGKHNYCRNPDGDAKPWCHVLKNRRLTWEYCDVPSCSTCGLRQYSQPQFRIKGGLFADIASHPWQAAIFAKHRRSPGERFLCGGILISSCWILSAAHCFQERFPPHHLTVILGRTYRVVPGEEEQKFEVEKYIVHKEFDDDTYDNDIALLQLKSDSSRCAQESSVVRTVCLPPADLQLPDWTECELSGYGKHEALSPFYSERLKEAHVRLYPSSRCTSQHLLNRTVTDNMLCAGDTRSGGPQANLHDACQGDSGGPLVCLNDGRMTLVGIISWGLGCGQKDVPGVYTKVTNYLDWIRDNMRP
Take B1: the “ADAMTS-13 activity with or without preincubation with tPA (technozym kit)” value in data set [1] was “the activity of both trADAMTS-13 and ADAMTS-13 WT was reduced in the presence of tPA (FIG. 4B)”. Further, in data set [2], the “ADAMTS-13 activity with or without preincubation with tPA (technozym kit)” value was “the activity of both trADAMTS-13 and ADAMTS-13 WT was reduced in the presence of tPA (FIG. 4B)”; the “activity of trADAMTS-13 WT after 4 hr in soluble fibrin (2 uM) or PBS, without or with tPA (100 nM)” value is “The addition of soluble fibrin reversed the tPA-mediated reduction in ADAMTS-13 activity (FIG. 14A)”; the “cleavage by tPA (Western blot) and residual proteolytic activity on vWF over time” value is “trADAMTS-13 was proteolyzed completely (FIG. 7A) and lost its catalytic activity (FIG. 7B)”; the “cleavage of trADAMTS-13 (500 nM) by tPA (100 nM), Western blot” value is reported as “in the presence of tPA, it is cleaved (FIG. 4C)”. The “residual proteolytic activity on vWF after 6 hours with or without tPA” value in data set [3] is “trADAMTS-13^R312K and trADAMTS-13^V313D variants were resistant to inactivation by tPA”.

The values above are taken from patent US20230295597.
